Measured values as given in the supplement of paper PMC9170038.

Test system: MS2 coat protein
Assay: apparent KD of MS2 coat protein; designed switch direction (-1 OFF switch, 1 ON switch): -1; higher = weaker reporter binding
Procedure, shortened: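 The reported apparent KD is a per-design median over clusters, from curve fits of normalised cluster fluorescence. Protein titrations used SNAP-549-labelled MS2 coat protein, doubled from 0.7 or 1.5 nM to 3 µM, in Tris-HCl pH 7.5 buffer with KCl, MgCl2, BSA, DTT, tRNA and Tween-20, with no input, 200 uM small-molecule ligand, or an oligonucleotide input. The RNA switches were transcribed on Illumina chips by stalled E. coli RNA polymerase.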

[1] = input ligand: microRNA oligo, concentration not stated
[2] = Eterna round: R95, input ligand: FMN 200 uM
[3] = Eterna round: R95, input ligand: microRNA oligo, concentration not stated
[4] = Eterna round: R95, input ligand: none

Sequence: CUUAGUUGGUAAGGAUAUCCUACAUUAUUCUGACCCGUGCAAGCUACAUGAGGAUCACCCAUGUGGGAGAAGGUGCGUUAAUGU [Design 6] (Eterna round: R96, puzzle: Exclusion NG 2)
- apparent KD of MS2 coat protein (input ligand: FMN 200 uM): 0.0184 µM
- apparent KD of MS2 coat protein [1]: 0.0129 µM
- apparent KD of MS2 coat protein (input ligand: none): 0.0201 µM

Sequence: AGGUGUAGAGGAUAUACAGUGUAUUACAUGAGGAUCACCCAUGUCCUUCAAUGGGUGUCAGUAGAAGGCUACACCA [Omei Ex5 C2] (Eterna round: R97, puzzle: Exclusion 5)
- apparent KD of MS2 coat protein (input ligand: FMN 200 uM): 0.255 µM
- apparent KD of MS2 coat protein (input ligand: none): 1.66 µM

Sequence: UAAACAUGGAUAUAACAGUACAUGAGGAUCACCCAUGUUAAUAUGAUAAAUUAUAACAAGUUUUUUUGUCGUCUUAA [Feeding at the Trough] (Eterna round: R97, puzzle: Sensor, turn-off variant 1)
- apparent KD of MS2 coat protein (input ligand: FMN 200 uM): 0.047 µM
- apparent KD of MS2 coat protein (input ligand: none): 0.19 µM

Sequence: CUGAGGUAGCGGUCCUAUGACAUGAGGAUCACCCAUGUACCUUGCUACGAGCUUUUUGCUCGUCUUAUAAUUCUCAG [Mat - Sensor v3 - turn-off var 1 - JL Mod - D31] (puzzle: Sensor v3, turn-off variant 1)
- apparent KD of MS2 coat protein [2]: 0.151 µM
- apparent KD of MS2 coat protein [3]: 0.0965 µM
- apparent KD of MS2 coat protein [4]: 0.247 µM

Sequence: GAAAACCAAGGAUAUACAUGAGGAUCACCCAUGUAGGUUGGGACGCCAUAAAGGCGAUGUAGAAGGUGGGAAAA [Inansoge] (puzzle: Exclusion 3)
- apparent KD of MS2 coat protein [3]: 0.0216 µM

Sequence: CUUUUGUGAGGAUAUGGUCUCGAUGACAUGAGGAUCACCCAUGUAACAUGGGACUUGUGACUAGAAGGCACUAACG [JR_Ex5_Sub024] (Eterna round: R97, puzzle: Exclusion 5)
- apparent KD of MS2 coat protein (input ligand: FMN 200 uM): 0.0226 µM
- apparent KD of MS2 coat protein (input ligand: none): 0.0164 µM

Sequence: UACAUGAGGAUCACCCAUGUUUUGUCGUGUAUGGUAUUUAUCUAGGAUAUCAAUUUAGUAAUUUAUGAGAAGGAGAAUAUUAAU [JMF's solution 73] (Eterna round: R96, puzzle: Exclusion NG 3)
- apparent KD of MS2 coat protein (input ligand: FMN 200 uM): 0.0375 µM
- apparent KD of MS2 coat protein [1]: 0.0314 µM
- apparent KD of MS2 coat protein (input ligand: none): 0.0408 µM

Sequence: CGGCAAUCCUAGGAUAUGCUAGACGAAAGUCUAGCAGAAGGAGGAACAUGAGGAUCACCCAUGUGUCCUAGCCG [Eli x6 4.02] (Eterna round: R97, puzzle: Exclusion 6)
- apparent KD of MS2 coat protein (input ligand: FMN 200 uM): 0.0235 µM
- apparent KD of MS2 coat protein (input ligand: none): 0.0202 µM

Sequence: UUAACAUGCUGGUGAUCAUACAUGAGGAUCACCCAUGUAACAAGCUUUUUGCUCGUCUUAUAAGAUCACCAGCAUGU [Stov1/9-A1] (Eterna round: R97, puzzle: Sensor, turn-off variant 1)
- apparent KD of MS2 coat protein (input ligand: FMN 200 uM): 0.0147 µM
- apparent KD of MS2 coat protein (input ligand: none): 0.0122 µM

Sequence: CCAUGAUAAGGAUAUUGAAGGUUCGACAUGAGGAUCACCCAUGUUAUGUUGGAAAAGGGACAAGAAGGUAUUAAUU [salish99_ex5_r4_221] (Eterna round: R97, puzzle: Exclusion 5)
- apparent KD of MS2 coat protein (input ligand: FMN 200 uM): 0.0482 µM
- apparent KD of MS2 coat protein (input ligand: none): 0.0458 µM

Sequence: GGUACUAUCACCUGAGUGGUAGUGCAACAAGCUUGUGAUACAUGAGGAUCACCCAUGUCCUCAUUUGCUCGUCUUAU [JL-sv3-2.25 JL mod] (puzzle: Sensor v3, turn-off variant 2)
- apparent KD of MS2 coat protein [2]: 0.209 µM
- apparent KD of MS2 coat protein [3]: 1.07 µM
- apparent KD of MS2 coat protein [4]: 0.217 µM

Sequence: AACCUAAUGCGAGGAUAUACUGAGACGUACAGUCGUCAGACAUGAGGAUCACCCAUGUACGCCUCGUAGAAGGCGCGUGACUAA [Bearareus] (Eterna round: R96, puzzle: Exclusion NG 2)
- apparent KD of MS2 coat protein (input ligand: FMN 200 uM): 0.0326 µM
- apparent KD of MS2 coat protein [1]: 0.0134 µM
- apparent KD of MS2 coat protein (input ligand: none): 0.0168 µM

Sequence: UGGAGUAUGUAGGAUAUUCAGGCAAAGAAAGCCGAAGAAGGACAUACUUGAGGAUCACCCAAGUUGUCCAAAAU [Zaanatatri] (Eterna round: R97, puzzle: Exclusion 6)
- apparent KD of MS2 coat protein (input ligand: FMN 200 uM): 0.0258 µM
- apparent KD of MS2 coat protein (input ligand: none): 0.0151 µM

Sequence: GUCGAACAUGAGGAUCACCCAUGUGAGGAUAUGCGAAUUUCAUCAAAAGAUGAAAUUUGCAGAAGGCACACGAC [Omei Ex1 A15] (Eterna round: R97, puzzle: Exclusion 1)
- apparent KD of MS2 coat protein (input ligand: FMN 200 uM): 0.0264 µM
- apparent KD of MS2 coat protein (input ligand: none): 0.0234 µM

Sequence: UAUUAACAAGCAAGAUCCUACAUGAGGAUCACCCAUGUGCUCGUCUUAUAAGGUACUGUGACGAAAGUCACGGUACC [Sensor 3, v1 - 70] (puzzle: Sensor v3, turn-off variant 1)
- apparent KD of MS2 coat protein [2]: 0.294 µM
- apparent KD of MS2 coat protein [3]: 0.0429 µM
- apparent KD of MS2 coat protein [4]: 0.251 µM

Sequence: GUGCCGCGAGGAUAUACAGACGGGUCCAAAACGUGUCUCGGACUUGAGGAUCACCCAAGUAGAAGGCGUAUCAG [salish99_ex2_r4_619] (Eterna round: R97, puzzle: Exclusion 2)
- apparent KD of MS2 coat protein (input ligand: FMN 200 uM): 0.0278 µM
- apparent KD of MS2 coat protein (input ligand: none): 0.0214 µM

Sequence: GCGCACUAAGUGAGGAUAUCGAUUUCUUUAAGGAUCGAGAAGGCACAUGAGGAUCACCCAUGUUUGACGUGCGC [JR_BMOE4_Sub097] (puzzle: Brourd's mod of Exclusion 4)
- apparent KD of MS2 coat protein [3]: 0.0155 µM

Sequence: GUUUUCAGACGGAGAUCCUACAUGAGGAUCACCCAUGUCUCACAAGCUAAUUGCUCGUCUUAUUCUCCUCUGUUCUC [Elimod 40 - Jieux - Sensor, turn-off variant 1] (Eterna round: R97, puzzle: Sensor, turn-off variant 1)
- apparent KD of MS2 coat protein (input ligand: FMN 200 uM): 0.0218 µM
- apparent KD of MS2 coat protein (input ligand: none): 0.0243 µM

Sequence: UUGCAGUCGUCAGGAUAUAGUAUUACGGCCAUUUUUUUUUUCAUACAUGAGGAUCACCCAUGUCGCUAGAAGGGAUUAUCGAUU [salish99_ExNG2_r04_103] (Eterna round: R96, puzzle: Exclusion NG 2)
- apparent KD of MS2 coat protein (input ligand: FMN 200 uM): 0.071 µM
- apparent KD of MS2 coat protein [1]: 0.0571 µM
- apparent KD of MS2 coat protein (input ligand: none): 0.067 µM

Sequence: UGUUGUUGUUUCCGUUCUUACAUGAGGAUCACCCAUGUUUCUUGUCGUGCUCGCGUUGCUCGUCAGACUACCUGUUG [salish99_TOv1_r3_065] (puzzle: Sensor v3, turn-off variant 1)
- apparent KD of MS2 coat protein [2]: 0.0934 µM
- apparent KD of MS2 coat protein [4]: 0.151 µM

Sequence: UGGGUUACCCAUGGAAGUAACAUGAGGAUCACCCAUGUAGGGCAAGUUUUUUGUUCGUCAUAGGCCGUGGGUUUGGA [JR_SV3TOV1_Sub021] (puzzle: Sensor v3, turn-off variant 1)
- apparent KD of MS2 coat protein [2]: 0.0304 µM
- apparent KD of MS2 coat protein [3]: 0.0568 µM
- apparent KD of MS2 coat protein [4]: 0.0324 µM

Sequence: CUGGUCCGAGGAUAUAUUAAGUGAUACAUGAGGAUCACCCAUGUUAUUUAAUGGAUAUUAAUAGAAGGCGGACUAG [Mat - Exclusion 5 - JL mod - D77] (puzzle: Exclusion 5)
- apparent KD of MS2 coat protein [2]: 0.0341 µM
- apparent KD of MS2 coat protein [3]: 0.0284 µM
- apparent KD of MS2 coat protein [4]: 0.0255 µM

Sequence: UGCUACGGAGGAUAUACAUGAGGAUCACCCAUGUGAGAGAUUUAGCCGAGAGGCUAGUGUAGAAGGCCGUAGCU [jl-ex3-4.17 jl mod] (Eterna round: R97, puzzle: Exclusion 3)
- apparent KD of MS2 coat protein (input ligand: FMN 200 uM): 0.4 µM
- apparent KD of MS2 coat protein (input ligand: none): 0.0628 µM

Sequence: GCCUCACAUGAGGAUCACCCAUGUCAGGAUAUACCCAUCCAGCGAAAUUAAAGCUGUAGUAGAAGGGACAUGCA [Bevebeis] (Eterna round: R97, puzzle: Exclusion 1)
- apparent KD of MS2 coat protein (input ligand: FMN 200 uM): 0.0537 µM
- apparent KD of MS2 coat protein (input ligand: none): 0.0184 µM

Sequence: GUUAGCGUAGGAUAUUAGUACAUGAACAUGAGGAUCACCCAUGUGAGGUGGGUCUUAGAUUAAGAAGGGCGAAGAA [EX5 #31] (Eterna round: R97, puzzle: Exclusion 5)
- apparent KD of MS2 coat protein (input ligand: FMN 200 uM): 0.387 µM
- apparent KD of MS2 coat protein (input ligand: none): 0.447 µM
